# In US7745109B2, “Regulation of cell growth by MUC1” (Dana-Farber Cancer Insitute, Inc., priority 2003, dated 2010):
# Target: T1, MUC1-p120 complexes (Homo sapiens, UniProt O60716)
# T1 sequence (O60716 1-968): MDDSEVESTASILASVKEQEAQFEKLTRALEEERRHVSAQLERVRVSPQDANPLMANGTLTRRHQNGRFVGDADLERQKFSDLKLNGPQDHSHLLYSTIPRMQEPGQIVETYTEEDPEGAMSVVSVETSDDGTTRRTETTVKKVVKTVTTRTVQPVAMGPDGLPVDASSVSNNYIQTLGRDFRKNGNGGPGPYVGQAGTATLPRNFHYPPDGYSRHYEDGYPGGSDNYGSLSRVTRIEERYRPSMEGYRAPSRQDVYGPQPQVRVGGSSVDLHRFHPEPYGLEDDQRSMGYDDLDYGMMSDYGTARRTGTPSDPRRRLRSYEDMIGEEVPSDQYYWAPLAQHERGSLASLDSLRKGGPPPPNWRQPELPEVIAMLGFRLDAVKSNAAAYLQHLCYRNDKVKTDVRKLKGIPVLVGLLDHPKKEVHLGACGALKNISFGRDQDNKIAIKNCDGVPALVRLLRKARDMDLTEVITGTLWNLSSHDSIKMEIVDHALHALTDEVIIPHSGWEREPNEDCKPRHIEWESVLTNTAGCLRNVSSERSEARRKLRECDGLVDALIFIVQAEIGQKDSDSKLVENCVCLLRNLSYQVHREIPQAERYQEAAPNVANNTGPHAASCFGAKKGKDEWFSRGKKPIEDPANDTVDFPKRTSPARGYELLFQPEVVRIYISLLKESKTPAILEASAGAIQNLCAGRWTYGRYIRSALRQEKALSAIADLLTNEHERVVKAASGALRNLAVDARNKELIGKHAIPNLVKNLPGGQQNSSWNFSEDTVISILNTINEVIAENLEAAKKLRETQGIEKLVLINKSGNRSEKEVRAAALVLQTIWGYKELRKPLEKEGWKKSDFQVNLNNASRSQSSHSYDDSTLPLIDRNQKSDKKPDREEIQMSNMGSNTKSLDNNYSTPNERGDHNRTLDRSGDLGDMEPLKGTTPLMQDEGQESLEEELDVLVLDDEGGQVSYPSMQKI
# Test: Inhibition of MUC1/CD binding to GST-p120 by peptides (glutathione bead precipitation, anti-MUC1/CD immunoblot)
# Conditions: peptide incubated with MUC1/CD and GST-p120; immunoblot with anti-MUC1/CD (FIG. 7C)
# Procedure: FIG. 7C is a pair of photographs of immunoblots. In the table above the immunoblots is indicated the mixtures of MUC1/CD, GST-p120, and GST which were incubated in the absence of inhibitor peptide (first and fourth lanes of both immunoblots) or in the presence of either a peptide with the amino acid sequence […] (SEQ ID NO:7) or a peptide with the amino acid sequence […] (SEQ ID NO:8). The four mixtures were incubated with glutathione-Sepharose 4B™ beads and proteins precipitated by the beads were subjected to immunoblot analysis with anti-MUC1/CD (“IB: anti-MUC1/CD”) (top immunoblot) or anti-p120 (“IB: anti-p120”) ([…]). The positions of MUC1/CD and p120 on the immunoblots are indicated.
# To identify the site in MUC1/CD that binds to p120, full-length MUC1/CD and the N- and C-terminal fragments (FIG. 7A) were incubated with purified GST-p120. […] To further localize the site, two peptides from the overlapping region were prepared. […] These findings indicate that p120 interacts with the […] site (SEQ ID NO:7) in MUC1.
sequence,measurement,value
MSEYPTYHTH (listed as Homo sapiens) [peptide from the MUC1/CD region common to the N- and C-terminal fragments],inhibition of the formation of MUC1-p120 complexes,inhibits the formation of MUC1-p120 complexes
